We go through two molecules from patent US20210032351A1 (XDCEXPLORER SHANGHAI, published 2021).

The EC50 (read off the curve) is the midpoint of the concentration-response curve. Read a high EC50 (read off the curve) as a less potent agent. Broadly, the EC50 is the concentration needed to bring the measured effect to its halfway point.

The target of assay [1] is T1, human EGFRvIII-hFc protein (human, UniProt P00533 25-645).
T1 construct: extracellular domain; made in HEK293 cells, purified on protein A; also called immunogen A; hFc-tagged EGFRvIII protein; not shown: human IgG Fc fragment (hFc) of the pCpC vector
Nature of the assay: ELISA, coated EGFRvIII-hFc, antibody 0.1 nM. The method in brief:
(§1)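 The antibody is applied to BSA-blocked wells pre-coated with EGFRvIII-hFc (1.0 μg/mL, overnight, 4° C) for 2 h at 37° C. Detection uses an HRP secondary (2 h, 37° C), TMB for 30 min, HCl stop and absorbance at 450 nm.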

Assay [2] addresses T2, human EGFR protein (wild-type), on cells (human, UniProt P00533 25-1210).
T2 construct: whole, on cells; transfected on CHO-K1 cells; endogenous on the human cell lines; the cell is named under assay; also called wild-type EGFR; hEGFR
Nature of the assay: FACS on A431 cells (wild-type EGFR), Alexa 488 secondary antibody, mean fluorescence intensity. The method, then: (§2) The cells are washed twice with the HBSS buffer and are counted, and then the cells are diluted with the HBSS buffer to 2×10⁶ cells/ml, added with 1% goat serum blocking solution, with the percentage being the mass percentage, and incubated on ice for 30 minutes, and then centrifugally washed twice with the HBSS buffer. The collected cells are suspended to 2×10⁶ cells/mL with an FACS buffer (HBSS+1% BSA, with the percentage being the mass percentage), added to a 96-well FACS reaction plate at 100 μL/well, then added with 100 μL/well of the purified EGFRvIII antibody (samples to be tested) obtained in example 2, and incubated on ice for 2 hours. The plate is centrifugally washed twice with the FACS buffer, added with 100 μL/well of a fluorescence (Alexa 488) labeled secondary antibody (purchased from Invitrogen), and then incubated on ice for 1 hour. […] The cells are suspended in 100 μL of the FACS buffer, and the results are detected and analyzed by FACS (FACS Calibur, purchased from BD). Data analysis is performed by using the software (CellQuest) to obtain the mean fluorescence intensity (MFI) of the cells. Data is further analyzed by using the software (GraphPad Prism5) to perform data fitting and calculate EC50. […]

Assay [3] has as its target T1, human EGFRvIII-hFc protein. Nature of the assay: ELISA, coated EGFRvIII-hFc, antibody 0.01 nM. The method in brief: as §1
(ELISA stands for enzyme-linked immunosorbent assay.)

For assay [4], the target named is T1, human EGFRvIII-hFc protein. As to the kind of experiment: ELISA, coated EGFRvIII-hFc, antibody 10 nM. The method in brief: as §1
In assay [5] the target is T1, human EGFRvIII-hFc protein. Nature of the assay: ELISA, coated EGFRvIII-hFc, antibody 1 nM. The method in brief: as §1
Assay [6] addresses T3, human wild-type EGFR protein on the cell surface (human, UniProt P00533 25-1210).
T3 construct: whole, on cells; Endogenous on A431, HEB, U87MG cells and normal human primary hepatocytes; transfected on CHOk1-EGFR cells; The cell is named under assay; also called A431; HEB
Nature of the assay: FACS, MFI on A431 cells over MFI on normal primary hepatocytes; ratio of MFI on A431 to MFI on hepatocytes. A general note: In flow cytometry, cells or beads pass a laser one at a time.

Assay [7] deals with T4, human EGFRvIII protein on the cell surface (human, UniProt P00533 25-1210).
T4 construct: whole, on cells; the cell line is named under assay; also called hEGFRvIII; U87MG-hEGFRvIII
Nature of the assay: FACS on U87MG-hEGFRvIII cells.

The target of assay [8] is T3, human wild-type EGFR protein on the …. As to the kind of experiment: FACS on CHOk1-EGFR cells; CHOk1-EGFR cells (recombinant EGFR expression). Here is the method:
as §2

B1: Murine anti-75G7 (antibody, V domains shown)
VH: EVQLQQSGPELVKPGASVKIPCKASGYTFTDYNMDWVKQSHGKSLEWIGDINPNNGDTIYNQKFKGKATLTVDKSSSTAYMELRSLTSEDTAVYYCARGDYDGYYPVYYAMDYWGQGTSVTVSS
VL: ENVLTQSPAIMSASPGEKVTMTCRASSSVSSSYLHWYQQKSGASPKLWIFSTSNLAAGVPARFSGSGSGTSYSLTVSSVEAEDAATYYCQQYSGYPLTFGAGTKLELK
notes: murine hybridoma antibody; also called 75G7C6
Regarding B1, the OD450 nm stood at 0.07 in assay [1], 0.06 in assay [3], 0.19 in assay [4] and 0.09 in assay [5]. In addition, in assay [2], the half-maximal effective concentration (EC50 (read off the curve)) was ~10 nM.

B2: Chimeric antibody 75G7 (antibody, human IgG1, V domains shown)
VH: B1 VH
VL: B1 VL
notes: also called c75G7C6; chimeric antibody c75G7C6
For the molecule B2, the “Selective window (MFI A431/Hepatocytes)” value in assay [6] stood at 26.5 fold. The EC50 stood at 6.1 nM in assay [7] and 14.2 nM in assay [8].
